This note sets out measurements from article PMC3012607, “From an electrophoretic mobility shift assay to isolated transcription factors: a fast genomic-proteomic approach”.

Data set [1] has as its target T1, 2488prp DBD (Xpp1 candidate) (Hypocrea jecorina (Trichoderma reesei), UniProt G0RQ24 395-492).
T1 sequence: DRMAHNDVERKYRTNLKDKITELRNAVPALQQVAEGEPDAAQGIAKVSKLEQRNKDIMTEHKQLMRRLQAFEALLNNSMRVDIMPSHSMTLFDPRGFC
The data set is described as follows: EMSA; EMSA: 100 ng DBD or 60 ng IVT protein with 15 ng FAM probe, 15 min on ice, binding buffer per cited ref [41]; pull-down binding mix: 200 mM KCl, 200 ng/uL poly(dIdC), 200 ng/uL CKT067/CKT068, 8 mM spermidine, on ice. The settings on record: protein: recombinant; tags: GST removed by thrombin; chain copies: 2; label: 5'-FAM on strand 1; blunt. A general note: In EMSA bound probe runs differently from free probe, usually more slowly.

The target in the next data set is T2, 2488prp (Xpp1 candidate) (Hypocrea jecorina (Trichoderma reesei), UniProt G0RQ24 1-492).
T2 sequence: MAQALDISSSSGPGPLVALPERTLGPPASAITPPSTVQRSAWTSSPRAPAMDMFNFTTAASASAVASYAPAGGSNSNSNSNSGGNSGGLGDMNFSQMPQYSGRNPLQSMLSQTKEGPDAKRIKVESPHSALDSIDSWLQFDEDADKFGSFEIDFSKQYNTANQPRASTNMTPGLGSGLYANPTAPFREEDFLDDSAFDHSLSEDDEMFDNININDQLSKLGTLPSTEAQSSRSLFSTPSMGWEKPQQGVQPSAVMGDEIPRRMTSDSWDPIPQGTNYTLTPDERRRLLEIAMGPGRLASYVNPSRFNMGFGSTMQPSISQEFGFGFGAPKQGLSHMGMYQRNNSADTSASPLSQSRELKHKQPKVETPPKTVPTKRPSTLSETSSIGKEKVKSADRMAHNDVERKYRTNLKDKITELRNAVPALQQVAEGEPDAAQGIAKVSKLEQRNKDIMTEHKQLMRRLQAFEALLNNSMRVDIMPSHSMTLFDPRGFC
The description is as above. To be noted: protein: ivt; chain copies: 2; label: 5'-FAM on strand 1; blunt.

B1: Lpxyn2 (dsDNA)
DNA 1: TGATGAAAGGAGAACAACTTCTAGACTGGGTAAATTGGTCAATGGCCAGCCGCTC
DNA 2: GAGCGGCTGGCCATTGACCAATTTACCCAGTCTAGAAGTTGTTCTCCTTTCATCA
In the case of B1, the binding result (in data set [1]; with 2488prp (Xpp1 candidate)) was “binds” each time.

B2: Lpxyn2 M (dsDNA)
DNA 1: TGATGAAAGGAGAACAACGGAGAGACTGGGTAAATTGGTCAATGGCCAGCCGCTC
DNA 2: GAGCGGCTGGCCATTGACCAATTTACCCAGTCTCTCCGTTGTTCTCCTTTCATCA
For the molecule B2, the binding result (in data set [1]; with 2488prp (Xpp1 candidate)) was “no binding” in each case.
